Measured values reported in patent publication EP1942187B1.
One block for each substance: values may come before it.

What was measured:
Experiment in all cases: cell-based or functional assay
IL10Rb (CRF2-4) (human) = IL10Rb (CRF2-4) (human) (UniProt Q08334)
[1] = molecular target: zcytoR19 and IL10Rb (CRF2-4) coexpressed on BHK cells (human)
human zcytor19 (human) = molecular target: human zcytor19 (human)

Chain of IL10Rb (CRF2-4) (human) (Q08334 20-325 limits assumed, form in doubt): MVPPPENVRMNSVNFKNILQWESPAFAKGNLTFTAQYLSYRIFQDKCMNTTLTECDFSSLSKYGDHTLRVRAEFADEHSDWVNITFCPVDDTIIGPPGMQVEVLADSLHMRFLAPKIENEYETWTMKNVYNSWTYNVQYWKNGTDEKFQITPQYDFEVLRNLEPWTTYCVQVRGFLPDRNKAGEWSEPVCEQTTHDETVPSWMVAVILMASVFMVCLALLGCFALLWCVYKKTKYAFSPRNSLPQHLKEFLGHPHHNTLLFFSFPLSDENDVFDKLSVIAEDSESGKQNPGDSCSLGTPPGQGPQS

ISRE-luciferase fold induction; wild-type 293 cells; Zcyto21 0.001 ng/ml; + IL10Rb neutralizing antibody (2.5 ug/ml) (fold induction) (IL10Rb (CRF2-4) (human)): 1.3
ISRE-luciferase fold induction; wild-type 293 cells; Zcyto21 0.001 ng/ml; no antibody (fold induction) (IL10Rb (CRF2-4) (human)): 1.2
ISRE-luciferase fold induction; wild-type 293 cells; Zcyto21 0.01 ng/ml; + IL10Rb neutralizing antibody (2.5 ug/ml) (fold induction) (IL10Rb (CRF2-4) (human)): 1.3
ISRE-luciferase fold induction; wild-type 293 cells; Zcyto21 0.01 ng/ml; no antibody (fold induction) (IL10Rb (CRF2-4) (human)): 1.2
ISRE-luciferase fold induction; wild-type 293 cells; Zcyto21 0.1 ng/ml; + IL10Rb neutralizing antibody (2.5 ug/ml) (fold induction) (IL10Rb (CRF2-4) (human)): 1.3
ISRE-luciferase fold induction; wild-type 293 cells; Zcyto21 0.1 ng/ml; no antibody (fold induction) (IL10Rb (CRF2-4) (human)): 1.1
ISRE-luciferase fold induction; wild-type 293 cells; Zcyto21 1 ng/ml; + IL10Rb neutralizing antibody (2.5 ug/ml) (fold induction) (IL10Rb (CRF2-4) (human)): 1.3
ISRE-luciferase fold induction; wild-type 293 cells; Zcyto21 1 ng/ml; no antibody (fold induction) (IL10Rb (CRF2-4) (human)): 1.5
ISRE-luciferase fold induction; wild-type 293 cells; Zcyto21 10 ng/ml; + IL10Rb neutralizing antibody (2.5 ug/ml) (fold induction) (IL10Rb (CRF2-4) (human)): 1.4
ISRE-luciferase fold induction; wild-type 293 cells; Zcyto21 10 ng/ml; no antibody (fold induction) (IL10Rb (CRF2-4) (human)): 3.2
ISRE-luciferase fold induction; wild-type 293 cells; Zcyto21 100 ng/ml; + IL10Rb neutralizing antibody (2.5 ug/ml) (fold induction) (IL10Rb (CRF2-4) (human)): 1.8
ISRE-luciferase fold induction; wild-type 293 cells; Zcyto21 100 ng/ml; no antibody (fold induction) (IL10Rb (CRF2-4) (human)): 4.1
ISRE-luciferase fold induction; zcytoR19-overexpressing 293 cells; Zcyto21 0.001 ng/ml; + IL10Rb neutralizing antibody (2.5 ug/ml) (fold induction) (IL10Rb (CRF2-4) (human)): 1
ISRE-luciferase fold induction; zcytoR19-overexpressing 293 cells; Zcyto21 0.001 ng/ml; no antibody (fold induction) (IL10Rb (CRF2-4) (human)): 1.1
ISRE-luciferase fold induction; zcytoR19-overexpressing 293 cells; Zcyto21 0.01 ng/ml; + IL10Rb neutralizing antibody (2.5 ug/ml) (fold induction) (IL10Rb (CRF2-4) (human)): 1.1
ISRE-luciferase fold induction; zcytoR19-overexpressing 293 cells; Zcyto21 0.01 ng/ml; no antibody (fold induction) (IL10Rb (CRF2-4) (human)): 3.5
ISRE-luciferase fold induction; zcytoR19-overexpressing 293 cells; Zcyto21 0.1 ng/ml; + IL10Rb neutralizing antibody (2.5 ug/ml) (fold induction) (IL10Rb (CRF2-4) (human)): 1
ISRE-luciferase fold induction; zcytoR19-overexpressing 293 cells; Zcyto21 0.1 ng/ml; no antibody (fold induction) (IL10Rb (CRF2-4) (human)): 1.5
ISRE-luciferase fold induction; zcytoR19-overexpressing 293 cells; Zcyto21 1 ng/ml; + IL10Rb neutralizing antibody (2.5 ug/ml) (fold induction) (IL10Rb (CRF2-4) (human)): 5.8
ISRE-luciferase fold induction; zcytoR19-overexpressing 293 cells; Zcyto21 1 ng/ml; no antibody (fold induction) (IL10Rb (CRF2-4) (human)): 35
ISRE-luciferase fold induction; zcytoR19-overexpressing 293 cells; Zcyto21 10 ng/ml; + IL10Rb neutralizing antibody (2.5 ug/ml) (fold induction) (IL10Rb (CRF2-4) (human)): 28
ISRE-luciferase fold induction; zcytoR19-overexpressing 293 cells; Zcyto21 10 ng/ml; no antibody (fold induction) (IL10Rb (CRF2-4) (human)): 48
ISRE-luciferase fold induction; zcytoR19-overexpressing 293 cells; Zcyto21 100 ng/ml; + IL10Rb neutralizing antibody (2.5 ug/ml) (fold induction) (IL10Rb (CRF2-4) (human)): 31
ISRE-luciferase fold induction; zcytoR19-overexpressing 293 cells; Zcyto21 100 ng/ml; no antibody (fold induction) (IL10Rb (CRF2-4) (human)): 45
ISRE-luciferase fold induction; BHK cells transfected with zcytoR19 and IL10Rb (CRF2-4); zcyto21 0.001 ng/ml (fold induction) [1]: 1.3
ISRE-luciferase fold induction; BHK cells transfected with zcytoR19 and IL10Rb (CRF2-4); zcyto21 0.01 ng/ml (fold induction) [1]: 1.6
ISRE-luciferase fold induction; BHK cells transfected with zcytoR19 and IL10Rb (CRF2-4); zcyto21 0.1 ng/ml (fold induction) [1]: 2.2
ISRE-luciferase fold induction; BHK cells transfected with zcytoR19 and IL10Rb (CRF2-4); zcyto21 1 ng/ml (fold induction) [1]: 2.5
ISRE-luciferase fold induction; BHK cells transfected with zcytoR19 and IL10Rb (CRF2-4); zcyto21 10 ng/ml (fold induction) [1]: 2.6
ISRE-luciferase fold induction; BHK cells transfected with zcytoR19 and IL10Rb (CRF2-4); zcyto21 100 ng/ml (fold induction) [1]: 2.5
ISRE-luciferase fold induction; BHK cells transfected with zcytoR19 and IL10Rb (CRF2-4); zcyto21 1000 ng/ml (fold induction) [1]: 2.2
ISRE-luciferase fold induction; 293 cells transfected with ISRE-Luc./Zcytor19; Zcyto21 125ng/ml (fold induction) (human zcytor19 (human)): 108
ISRE-luciferase fold induction; BHK cells transfected with zcytoR19 alone; zcyto21 0.001 ng/ml (fold induction) (human zcytor19 (human)): 1.3
ISRE-luciferase fold induction; BHK cells transfected with zcytoR19 alone; zcyto21 0.01 ng/ml (fold induction) (human zcytor19 (human)): 1.4
ISRE-luciferase fold induction; BHK cells transfected with zcytoR19 alone; zcyto21 0.1 ng/ml (fold induction) (human zcytor19 (human)): 1.4
ISRE-luciferase fold induction; BHK cells transfected with zcytoR19 alone; zcyto21 1 ng/ml (fold induction) (human zcytor19 (human)): 2
ISRE-luciferase fold induction; BHK cells transfected with zcytoR19 alone; zcyto21 10 ng/ml (fold induction) (human zcytor19 (human)): 2.4
ISRE-luciferase fold induction; BHK cells transfected with zcytoR19 alone; zcyto21 100 ng/ml (fold induction) (human zcytor19 (human)): 2.6
ISRE-luciferase fold induction; BHK cells transfected with zcytoR19 alone; zcyto21 1000 ng/ml (fold induction) (human zcytor19 (human)): 3.3
Substance: zcyto21 (from UniProt Q8IU54 20-200) (ligand)

ISRE-luciferase fold induction; wild-type 293 cells; Zcyto20 0.01 ng/ml; + IL10Rb neutralizing antibody (8 ug/ml) (fold induction) (IL10Rb (CRF2-4) (human)): 0.8
ISRE-luciferase fold induction; wild-type 293 cells; Zcyto20 0.01 ng/ml; no antibody (fold induction) (IL10Rb (CRF2-4) (human)): 1
ISRE-luciferase fold induction; wild-type 293 cells; Zcyto20 0.1 ng/ml; + IL10Rb neutralizing antibody (8 ug/ml) (fold induction) (IL10Rb (CRF2-4) (human)): 1
ISRE-luciferase fold induction; wild-type 293 cells; Zcyto20 0.1 ng/ml; no antibody (fold induction) (IL10Rb (CRF2-4) (human)): 1
ISRE-luciferase fold induction; wild-type 293 cells; Zcyto20 1 ng/ml; + IL10Rb neutralizing antibody (8 ug/ml) (fold induction) (IL10Rb (CRF2-4) (human)): 0.9
ISRE-luciferase fold induction; wild-type 293 cells; Zcyto20 1 ng/ml; no antibody (fold induction) (IL10Rb (CRF2-4) (human)): 1
ISRE-luciferase fold induction; wild-type 293 cells; Zcyto20 10 ng/ml; + IL10Rb neutralizing antibody (8 ug/ml) (fold induction) (IL10Rb (CRF2-4) (human)): 0.9
ISRE-luciferase fold induction; wild-type 293 cells; Zcyto20 10 ng/ml; no antibody (fold induction) (IL10Rb (CRF2-4) (human)): 4
ISRE-luciferase fold induction; wild-type 293 cells; Zcyto20 100 ng/ml; + IL10Rb neutralizing antibody (8 ug/ml) (fold induction) (IL10Rb (CRF2-4) (human)): 0.8
ISRE-luciferase fold induction; wild-type 293 cells; Zcyto20 100 ng/ml; no antibody (fold induction) (IL10Rb (CRF2-4) (human)): 8.4
ISRE-luciferase fold induction; zcytoR19-overexpressing 293 cells; Zcyto20 0.01 ng/ml; + IL10Rb neutralizing antibody (8 ug/ml) (fold induction) (IL10Rb (CRF2-4) (human)): 1.2
ISRE-luciferase fold induction; zcytoR19-overexpressing 293 cells; Zcyto20 0.01 ng/ml; no antibody (fold induction) (IL10Rb (CRF2-4) (human)): 1.1
ISRE-luciferase fold induction; zcytoR19-overexpressing 293 cells; Zcyto20 0.1 ng/ml; + IL10Rb neutralizing antibody (8 ug/ml) (fold induction) (IL10Rb (CRF2-4) (human)): 1.1
ISRE-luciferase fold induction; zcytoR19-overexpressing 293 cells; Zcyto20 0.1 ng/ml; no antibody (fold induction) (IL10Rb (CRF2-4) (human)): 6
ISRE-luciferase fold induction; zcytoR19-overexpressing 293 cells; Zcyto20 1 ng/ml; + IL10Rb neutralizing antibody (8 ug/ml) (fold induction) (IL10Rb (CRF2-4) (human)): 1.3
ISRE-luciferase fold induction; zcytoR19-overexpressing 293 cells; Zcyto20 1 ng/ml; no antibody (fold induction) (IL10Rb (CRF2-4) (human)): 68
ISRE-luciferase fold induction; zcytoR19-overexpressing 293 cells; Zcyto20 10 ng/ml; + IL10Rb neutralizing antibody (8 ug/ml) (fold induction) (IL10Rb (CRF2-4) (human)): 23
ISRE-luciferase fold induction; zcytoR19-overexpressing 293 cells; Zcyto20 10 ng/ml; no antibody (fold induction) (IL10Rb (CRF2-4) (human)): 97
ISRE-luciferase fold induction; zcytoR19-overexpressing 293 cells; Zcyto20 100 ng/ml; + IL10Rb neutralizing antibody (8 ug/ml) (fold induction) (IL10Rb (CRF2-4) (human)): 60
ISRE-luciferase fold induction; zcytoR19-overexpressing 293 cells; Zcyto20 100 ng/ml; no antibody (fold induction) (IL10Rb (CRF2-4) (human)): 91
ISRE-luciferase fold induction; BHK cells transfected with zcytoR19 and IL10Rb (CRF2-4); zcyto20 0.001 ng/ml (fold induction) [1]: 1.5
ISRE-luciferase fold induction; BHK cells transfected with zcytoR19 and IL10Rb (CRF2-4); zcyto20 0.01 ng/ml (fold induction) [1]: 1.6
ISRE-luciferase fold induction; BHK cells transfected with zcytoR19 and IL10Rb (CRF2-4); zcyto20 0.1 ng/ml (fold induction) [1]: 2.1
ISRE-luciferase fold induction; BHK cells transfected with zcytoR19 and IL10Rb (CRF2-4); zcyto20 1 ng/ml (fold induction) [1]: 2.5
ISRE-luciferase fold induction; BHK cells transfected with zcytoR19 and IL10Rb (CRF2-4); zcyto20 10 ng/ml (fold induction) [1]: 2.4
ISRE-luciferase fold induction; BHK cells transfected with zcytoR19 and IL10Rb (CRF2-4); zcyto20 100 ng/ml (fold induction) [1]: 2.6
ISRE-luciferase fold induction; BHK cells transfected with zcytoR19 and IL10Rb (CRF2-4); zcyto20 1000 ng/ml (fold induction) [1]: 2.1
ISRE-luciferase fold induction; 293 cells transfected with ISRE-Luc./Zcytor19; Zcyto20 125ng/ml (fold induction) (human zcytor19 (human)): 125
ISRE-luciferase fold induction; BHK cells transfected with zcytoR19 alone; zcyto20 0.001 ng/ml (fold induction) (human zcytor19 (human)): 1.4
ISRE-luciferase fold induction; BHK cells transfected with zcytoR19 alone; zcyto20 0.01 ng/ml (fold induction) (human zcytor19 (human)): 1.2
ISRE-luciferase fold induction; BHK cells transfected with zcytoR19 alone; zcyto20 0.1 ng/ml (fold induction) (human zcytor19 (human)): 1.25
ISRE-luciferase fold induction; BHK cells transfected with zcytoR19 alone; zcyto20 1 ng/ml (fold induction) (human zcytor19 (human)): 1.3
ISRE-luciferase fold induction; BHK cells transfected with zcytoR19 alone; zcyto20 10 ng/ml (fold induction) (human zcytor19 (human)): 2.1
ISRE-luciferase fold induction; BHK cells transfected with zcytoR19 alone; zcyto20 100 ng/ml (fold induction) (human zcytor19 (human)): 2.2
ISRE-luciferase fold induction; BHK cells transfected with zcytoR19 alone; zcyto20 1000 ng/ml (fold induction) (human zcytor19 (human)): 2.25
Substance: zcyto20 (ligand)

ISRE-luciferase fold induction; 293 cells transfected with ISRE-Luc./Zcytor19; HuIL 10 100ng/ml (fold induction) (human zcytor19 (human)): 0.5
Substance: huIL10 (from UniProt P22301 19-178) (ligand)
